Laboratory results taken from the Immune Epitope Database (IEDB).

Experiments:
[1] = biological target: HLA-A*02:01; assay: IEDB peptide-MHC binding, purified MHC/direct/fluorescence; filed as Kd, often an IC50 or EC50 that approximates it; ≥ and ≤ were set here for values at or beyond the usual limits of such assays; conditions: source organism: Vibrio cholerae V52
[2] = biological target: HLA-A*02:11; assay: as above; conditions: source organism: Vibrio cholerae V52
[3] = biological target: HLA-A*02:12; assay: as above; conditions: source organism: Vibrio cholerae V52
[4] = biological target: HLA-A*02:16; assay: as above; conditions: source organism: Vibrio cholerae V52
[5] = biological target: HLA-A*02:19; assay: as above; conditions: source organism: Vibrio cholerae V52
[6] = biological target: HLA-A*24:03; assay: as above; conditions: source organism: Vibrio cholerae V52
[7] = biological target: HLA-A*26:01; assay: as above; conditions: source organism: Vibrio cholerae V52
[8] = biological target: HLA-A*68:02; assay: as above; conditions: source organism: Vibrio cholerae V52
[9] = biological target: HLA-B*27:03; assay: as above; conditions: source organism: Vibrio cholerae V52
[10] = biological target: HLA-B*39:01; assay: as above; conditions: source organism: Vibrio cholerae V52
[11] = biological target: HLA-A*01:01; assay: IEDB peptide-MHC binding, purified MHC/competitive/fluorescence; filed as Kd, often an IC50 or EC50 that approximates it; ≥ and ≤ were set here for values at or beyond the usual limits of such assays; conditions: source organism: Vibrio cholerae 2740-80
[12] = biological target: HLA-A*11:01; assay: as above; conditions: source organism: Vibrio cholerae 2740-80
[13] = biological target: HLA-A*30:01; assay: as above; conditions: source organism: Vibrio cholerae 2740-80
[14] = biological target: HLA-A*30:02; assay: as above; conditions: source organism: Vibrio cholerae 2740-80
[15] = biological target: HLA-A*66:01; assay: as above; conditions: source organism: Vibrio cholerae 2740-80
[16] = biological target: HLA-B*07:02; assay: as above; conditions: source organism: Vibrio cholerae 2740-80
[17] = biological target: HLA-B*08:01; assay: as above; conditions: source organism: Vibrio cholerae 2740-80
[18] = biological target: HLA-B*14:02; assay: as above; conditions: source organism: Vibrio cholerae 2740-80
[19] = biological target: HLA-B*27:05; assay: as above; conditions: source organism: Vibrio cholerae 2740-80
[20] = biological target: HLA-B*40:01; assay: as above; conditions: source organism: Vibrio cholerae 2740-80
[21] = biological target: HLA-B*44:02; assay: as above; conditions: source organism: Vibrio cholerae 2740-80
[22] = biological target: HLA-B*51:01; assay: as above; conditions: source organism: Vibrio cholerae 2740-80
[23] = biological target: HLA-B*53:01; assay: as above; conditions: source organism: Vibrio cholerae 2740-80
[24] = biological target: HLA-B*58:01; assay: as above; conditions: source organism: Vibrio cholerae 2740-80

Measured: Kd

MGMEQTMSV
≤ 0.001 µM: [8]
≥ 5 µM: [11] | [12] | [13] | [14] | [15] | [16] | [17] | [18] | [19] | [20] | [21] | [22] | [23] | [24]
≥ 20 µM: [1] | [2] | [3] | [4] | [5] | [6] | [7] | [9] | [10]
